From article PMC10655381

Molecular target: recombinant glycerol dehydratase 2eGDHt αβγ heterotrimer from Klebsiella pneumoniae 2e (Klebsiella pneumoniae 2e) (UniProt Q59476)
Experiment: native gel or EMSA; Native-PAGE of purified recombinant 2eGDHt; heterotrimer to dimer of heterotrimers

stoichiometry N: 2
Substance: recombinant glycerol dehydratase 2eGDHt αβγ heterotrimer from Klebsiella pneumoniae 2e (from UniProt Q59476 1-555; A6TE99 1-194; Q59475 1-141) (complex)
